Test [1] addresses HIV Env of the 113-member cross-clade virus panel (Table 6). Kind of test: cell-based or functional assay.
The target of test [2] is HIV Env of the 106-virus cross-clade panel (Table 5). Briefly: cell-based or functional assay.

The text below walks through data of patent US20210292396A1.

Changes are numbered by the printed parent chain.

B1: ePGT121.15.H1.L1 (antibody, V domains shown)
VH: QMQLQESGPGLVKPGETLSLTCSVSGASISSSYWSWLRETPGKGLEWIGYTHHSGDTNYAPSLKSRVHLGLHPSKNQVSLSLTSVTAADTAVYYCARTLHGRRIYGVVAFNEWFTYFYWEVWGNGTQVTVSS
VL: SDISVAPGETVRISCGGESIGSRAVQWYQHRAGQAPKLIIYNNQDRPPGIPERFSGSPDIDFGTTATLTITNVEAGDEATYYCHIWDSRRPTNWVFGGGTTLTVL
On to B1, for which, in test [1], the Breadth was determined as 76% and the GeoMean came to 0.0061. In test [2], this molecule yielded a % Breadth of 75%; a Median IC50 of 1 ng/mL; a breadth of neutralization at an IC80 of 0.01 microg/ml of 50%; a median IC80, 106-virus panel of 9.3 ng/mL. For the same molecule, the neutralization breadth (IC80), 106-virus panel in test [2] amounted to 69%.

B2: ePGT121.15.H6.L1 (antibody, V domains shown)
VH: B1 VH with W113F, N124K
VL: B1 VL
In test [1], B2 displayed a Breadth of 77% and a GeoMean of 0.0048.
